Reference: the supplement of paper PMC12764529
± gives the half width of the 95% confidence interval.

Legend:
[1] = folding stability dG unfold from trypsin proteolysis; higher = more stable
Method: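 Folding stability of de novo designed mini-proteins (<80 aa, no Cys; designed by TrROS, TrMRF, ProteinMPNN and the joint model) was measured by cDNA display proteolysis with trypsin and chymotrypsin. Each protease was used at 11 concentrations in a threefold dilution series plus a no-protease condition. K50 was inferred by Bayesian fitting of sequencing counts, and dG unfold was derived against a sequence-predicted unfolded-state K50 (Tsuboyama et al. method). Sequences shown include variable-length N-terminal GS-type padding (SAGGSAGG...) inside a display construct carrying a PA tag. Rows were kept only if the AF2 dimer inter-PAE was >15, to exclude likely homo-oligomers.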

[2] = folding stability dG unfold (combined trypsin and chymotrypsin); higher = more stable
Method in brief: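 Mini-proteins designed to be under 80 residues and free of cysteine were carried in a PA-tagged cDNA display construct and digested with trypsin and with chymotrypsin. Each protease was applied at 11 threefold-diluted concentrations, alongside a no-protease condition, before sequencing. K50 came from Bayesian fitting of the sequencing counts, and unfolding free energy was obtained by comparing it with a sequence-predicted unfolded-state K50 and a shared folded-state K50, for each protease separately or for both together. Designs were retained only if their AlphaFold2 dimer inter-PAE exceeded 15.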

**Q.** Which results are given for “SAGGSAGGSAGGSSVSSLSIKNPPSDPKGILSSVSPEGKVVLTTVNPDGSLTTTVVDVNSAGGSAGGSAGGS [r4_177_JUSTAS]”?
**A.** folding stability dG unfold [1]: 0.787 ± 0.065 kcal/mol; folding stability dG unfold [2]: 0.414 ± 0.2 kcal/mol

**Q.** For “SAGGSAGGSIEIDHDRDPGTNRYTATVEIPDPDGKGLEVEVQMNGDPEDAAKTAAKTVLEEFNSAGGSAGGS [r20_33_TrROS]”, which “folding stability dG unfold” value [1] is on record?
**A.** 0.07 ± 0.27 kcal/mol

**Q.** What about the “folding stability dG unfold” value [2] of the same sequence?
**A.** < -1 kcal/mol

**Q.** What does the source list for “SAGGSAGGSAGMSPNIVSYETVESDKNGNIIKKTTYLYSDNTIITETFSPKKKKKIQTFSKESAGGSAGGSA [r18_302_JUSTAS]”?
**A.** folding stability dG unfold [1]: -0.434 ± 0.29 kcal/mol; folding stability dG unfold [2]: < -1 kcal/mol

**Q.** With “SAGGSAGGSAGMYTVSPVGSGGGGSMIRIENPETGEVIELDFDSEEEAAAAAEELKEKLASAGGSAGGSAGG [r11_848_JUSTAS]” as the sequence, how does the “folding stability dG unfold” value [1] read?
**A.** 0.343 ± 0.043 kcal/mol

**Q.** And the “folding stability dG unfold” value [2]?
**A.** -0.22 ± 0.17 kcal/mol

**Q.** With “SAGGSATIKEGQVITRTVTDPSTGKEYEVEITIKKVTKYPASPEGILREEYEIEVKKSPKVSPLKLSAGGSA [r15_248_JUSTAS]” as the sequence, how does the “folding stability dG unfold” value [1] read?
**A.** 0.112 ± 0.12 kcal/mol

**Q.** And the “folding stability dG unfold” value [2]?
**A.** < -1 kcal/mol

**Q.** For “SMKKTLTEKIEGVLPEEEAERYLEEYIASRPWAEKVEVKPEIKPIFDEKGNKLVKVKTTITVTISEEKLKSA [r9_1006_JUSTAS]”, which “folding stability dG unfold” value [1] is on record?
**A.** -0.776 ± 0.95 kcal/mol

**Q.** And the “folding stability dG unfold” value [2]?
**A.** < -1 kcal/mol

**Q.** For “SGNSLNEKGESYPITVKAPDPNVTPEQVKAALEKAGAKVLEIKRPPKGSTLTVSVEITDPEKVKEAFEKLSA [r9_1154_JUSTAS]”, which “folding stability dG unfold” value [1] is on record?
**A.** -1.05 ± 0.44 kcal/mol

**Q.** What about the “folding stability dG unfold” value [2] of the same sequence?
**A.** < -1 kcal/mol

**Q.** What does the source list for “SAGGMTIVKPSDGTPQFIEDEEAEKLVKELEEKGLLKKEKPGDITIPLPTVDPVTGKPRTTTITILPESSAG [r5_243_JUSTAS]”?
**A.** folding stability dG unfold [1]: -0.962 ± 0.14 kcal/mol; folding stability dG unfold [2]: < -1 kcal/mol

**Q.** What does the source list for “SAGGSAEEKAKAIKEELEKKGEVKKVTVTIEPTPENSTKVTVEIEKEPKPKPKEYKYTELPNGKKVILSAGG [r13_957_JUSTAS]”?
**A.** folding stability dG unfold [1]: -0.416 ± 0.12 kcal/mol; folding stability dG unfold [2]: < -1 kcal/mol

**Q.** With “SAGGSASYSSLKITIIDTGTTTTVPPGATTTPTVVKLPDNKTAIITTTTPPDGTTATTVELFDNDKSAGGSA [r15_559_JUSTAS]” as the sequence, how does the “folding stability dG unfold” value [1] read?
**A.** -0.717 ± 0.12 kcal/mol

**Q.** What about the “folding stability dG unfold” value [2] of the same sequence?
**A.** < -1 kcal/mol

**Q.** With “SAGGSAGGMSISTEQEGGKITVTDSSPGTPIAELPPDVEKEVETPVIPPPPPLYRLFLPGTVLVSAGGSAGG [r6_40_JUSTAS]” as the sequence, how does the “folding stability dG unfold” value [1] read?
**A.** -0.94 ± 0.48 kcal/mol

**Q.** What about the “folding stability dG unfold” value [2] of the same sequence?
**A.** < -1 kcal/mol

**Q.** What does the source list for “SAGGSGMRKFSPEEAKKKEVVITIPVVTYSPSLKFSPVTVPVTVSGPVTSDEEAKEKVEKAVKELASAGGSA [r2_244_JUSTAS]”?
**A.** folding stability dG unfold [1]: -1.03 ± 0.48 kcal/mol; folding stability dG unfold [2]: < -1 kcal/mol

**Q.** Which “folding stability dG unfold” value [1] does the source give for “SMGLTKKERVITIVKEAYAKNPDKKITLRYADIEATTPEKMSAEEIEKLLKEVTGIKDIKIYPVKPDDPESA [r9_738_TrMRF]” here?
**A.** 0.0464 ± 0.25 kcal/mol

**Q.** What about the “folding stability dG unfold” value [2] of the same sequence?
**A.** < -1 kcal/mol

**Q.** Which results are given for “SAGGSAGGSAGGITPEEIEKIREAPLPNGAPIKDVFVEGDYAVVLFETEPDLYLIVIPNKSAGGSAGGSAGG [r7_995_TrMRF]”?
**A.** folding stability dG unfold [1]: -0.121 ± 0.12 kcal/mol; folding stability dG unfold [2]: -0.907 ± 0.57 kcal/mol

**Q.** With “SAGGSAGGMVPITDLTVDSEEFVLPTGGVATRETITRPATGLVYEKVVFTPKPGVVEQREVALLSAGGSAGG [r6_895_JUSTAS]” as the sequence, how does the “folding stability dG unfold” value [1] read?
**A.** -0.471 ± 0.12 kcal/mol

**Q.** What about the “folding stability dG unfold” value [2] of the same sequence?
**A.** < -1 kcal/mol

**Q.** What does the source list for “SAGGSAGGSMRFVTIKVPGPDTTFTFDTDGDEALEAKLAELEKKHPEIKKENIEKLEVNPGPGSAGGSAGGS [r12_852_JUSTAS]”?
**A.** folding stability dG unfold [1]: -0.345 ± 0.52 kcal/mol; folding stability dG unfold [2]: < -1 kcal/mol

**Q.** Which “folding stability dG unfold” value [1] does the source give for “SAGGSAGGSAGGPKFKFEDVMVQRNPEPERAYVPITYEDPGKERPIMIPIPPNQTLDEISAGGSAGGSAGGS [r10_304_TrROS]” here?
**A.** 0.0428 ± 0.068 kcal/mol

**Q.** And the “folding stability dG unfold” value [2]?
**A.** < -1 kcal/mol

**Q.** Which “folding stability dG unfold” value [1] does the source give for “SAGGSAGGSAGKEIHIPFPDGDTPEQAKKFAKEIADMLAQKNGKPIKVDKIEIIPPEQWPSAGGSAGGSAGG [r17_68_TrROS]” here?
**A.** -0.546 ± 0.11 kcal/mol

**Q.** What about the “folding stability dG unfold” value [2] of the same sequence?
**A.** -0.804 ± 0.34 kcal/mol

**Q.** For “SAGGSAGGSMVLIIVPPSKPELAEEKAKELAEKGEIKEYEIKTVSSEEEAEKLAKNYEKVILESAGGSAGGS [r12_679_JUSTAS]”, which “folding stability dG unfold” value [1] is on record?
**A.** -0.171 ± 0.083 kcal/mol

**Q.** What about the “folding stability dG unfold” value [2] of the same sequence?
**A.** -0.324 ± 0.28 kcal/mol

**Q.** Which “folding stability dG unfold” value [1] does the source give for “SAGGPKLYIMIPPELRDNFPDIEIRPVEIPDDNIEIEIKFPGKKVTFPIYIFDPDGKIVEPQTITIEPSAGG [r13_129_TrROS]” here?
**A.** 0.501 ± 0.076 kcal/mol

**Q.** And the “folding stability dG unfold” value [2]?
**A.** 0.226 ± 0.27 kcal/mol
